Assay results published in publication PMC9012472 (Science Advances, 2022).
Each block holds one binder with its values, some of them ahead of it.

Target: T1, human Inturned (human, UniProt Q9ULD6 1-942)
T1 sequence (looked up): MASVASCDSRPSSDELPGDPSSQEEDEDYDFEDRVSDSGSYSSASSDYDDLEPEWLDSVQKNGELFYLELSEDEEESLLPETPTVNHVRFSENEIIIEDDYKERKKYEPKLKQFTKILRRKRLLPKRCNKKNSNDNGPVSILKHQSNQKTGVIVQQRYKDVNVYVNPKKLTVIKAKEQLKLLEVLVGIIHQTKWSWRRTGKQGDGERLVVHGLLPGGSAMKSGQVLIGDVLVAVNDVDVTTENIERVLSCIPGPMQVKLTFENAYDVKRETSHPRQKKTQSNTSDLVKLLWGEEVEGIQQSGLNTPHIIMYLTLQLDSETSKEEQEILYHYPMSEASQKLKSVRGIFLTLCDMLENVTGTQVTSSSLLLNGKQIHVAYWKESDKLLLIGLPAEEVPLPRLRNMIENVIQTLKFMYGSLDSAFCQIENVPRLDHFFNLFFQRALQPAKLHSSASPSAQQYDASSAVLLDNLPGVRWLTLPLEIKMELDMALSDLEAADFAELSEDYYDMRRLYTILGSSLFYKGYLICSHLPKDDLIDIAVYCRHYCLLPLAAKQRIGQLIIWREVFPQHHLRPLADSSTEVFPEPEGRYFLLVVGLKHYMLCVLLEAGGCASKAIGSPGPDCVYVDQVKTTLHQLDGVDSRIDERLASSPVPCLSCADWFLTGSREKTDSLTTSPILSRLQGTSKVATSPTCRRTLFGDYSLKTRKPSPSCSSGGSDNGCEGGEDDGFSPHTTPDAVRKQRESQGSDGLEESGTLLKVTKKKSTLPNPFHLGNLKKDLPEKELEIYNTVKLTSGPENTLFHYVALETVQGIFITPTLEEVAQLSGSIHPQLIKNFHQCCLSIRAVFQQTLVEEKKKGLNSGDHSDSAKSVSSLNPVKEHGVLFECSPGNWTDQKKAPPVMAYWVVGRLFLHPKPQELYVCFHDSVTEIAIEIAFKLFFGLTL
Experiment: cryo-EM structure

- binding result: binds
B1: human Wdpcp (natural protein, UniProt O95876 1-746, looked up)
chain: MRREFCWDAYSKAAGSRASSPLPRQDRDSFCHQMSFCLTELHLWSLKNTLHIADRDIGIYQYYDKKDPPATEHGNLEKKQKLAESRDYPWTLKNRRPEKLRDSLKELEELMQNSRCVLSKWKNKYVCQLLFGSGVLVSLSLSGPQLEKVVIDRSLVGKLISDTISDALLTDSFIILSFLAQNKLCFIQFTKKMESSDVNKRLEKLSALDYKIFYYEIPGPINKTTERHLAINCVHDRVVCWWPLVNDDAWPWAPISSEKDRANLLLLGYAQGRLEVLSSVRTEWDPLDVRFGTKQPYQVFTVEHSVSVDKEPMADSCIYECIRNKIQCVSVTRIPLKSKAISCCRNVTEDKLILGCEDSSLILYETHRRVTLLAQTELLPSLISCHPSGAILLVGSNQGELQIFDMALSPINIQLLAEDRLPRETLQFSKLFDASSSLVQMQWIAPQVVSQKGEGSDIYDLLFLRFERGPLGVLLFKLGVFTRGQLGLIDIIFQYIHCDEIYEAINILSSMNWDTLGHQCFISMSAIVNHLLRQKLTPEREAQLETSLGTFYAPTRPLLDSTILEYRDQISKYARRFFHHLLRYQRFEKAFLLAVDVGARDLFMDIHYLALDKGELALAEVARKRASDIDAESITSGVELLGPLDRGDMLNEAFIGLSLAPQGEDSFPDNLPPSCPTHRHILQQRILNGSSNRQIIDRRNELEKDICSGFLMTNTCNAEDGELREDGREQEIRDGGSLKMIHFGLV

- binding result: binds
B2: human Fuzzy (natural protein, UniProt Q9BT04 1-418, looked up)
chain: MGEEGTGGTVHLLCLAASSGVPLFCRSSRGGAPARQQLPFSVIGSLNGVHMFGQNLEVQLSSARTENTTVVWKSFHDSITLIVLSSEVGISELRLERLLQMVFGAMVLLVGLEELTNIRNVERLKKDLRASYCLIDSFLGDSELIGDLTQCVDCVIPPEGSLLQEALSGFAEAAGTTFVSLVVSGRVVAATEGWWRLGTPEAVLLPWLVGSLPPQTARDYPVYLPHGSPTVPHRLLTLTLLPSLELCLLCGPSPPLSQLYPQLLERWWQPLLDPLRACLPLGPRALPSGFPLHTDILGLLLLHLELKRCLFTVEPLGDKEPSPEQRRRLLRNFYTLVTSTHFPPEPGPPEKTEDEVYQAQLPRACYLVLGTEEPGTGVRLVALQLGLRRLLLLLSPQSPTHGLRSLATHTLHALTPLL
